The text below walks through data of US6897044 (Biogen, dated 2005).

Assay [1] concerns the target T1, CD20 antigen (human, UniProt P11836 1-297).
T1 construct: whole, on cells; Carried by the cell lines SKW and SB (CD20+/CD23+) and DHL-4 (CD20+/CD23-); also called human CD20
T1 sequence (looked up): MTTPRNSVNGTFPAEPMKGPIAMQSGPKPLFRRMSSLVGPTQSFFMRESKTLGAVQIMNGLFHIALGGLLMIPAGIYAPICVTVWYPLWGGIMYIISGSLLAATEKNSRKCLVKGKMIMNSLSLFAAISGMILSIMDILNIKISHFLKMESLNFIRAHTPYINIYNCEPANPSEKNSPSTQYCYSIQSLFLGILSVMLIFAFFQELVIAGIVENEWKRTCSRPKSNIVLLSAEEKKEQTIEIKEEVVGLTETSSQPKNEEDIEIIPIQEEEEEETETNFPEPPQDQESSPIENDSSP
Put plainly: competitive binding on SKW cells against murine 2B8, flow cytometry with FITC anti-human IgG (by the method, 2B8 was serially diluted and C2B8 fixed at 1 µg/ml). The protocol: (§1) Binding of monomer and dimerized antibody to various cells was evaluated by indirect immunostaining using FITC anti-human IgG and analyzed using flow cytometry (indirect IF). Cells (2×10^6 viable cells in 0.1 ml cmfPB S/2% Fetal Calf Serum/0.1% Sodium Azide, PBS/FCS buffer) were incubated for one hour on ice with 0.1 ml of 5 fold serially diluted antibody. Cells were twice washed by centrifugation (200×g) using 2 ml PBS/wash and suspended in 0.2 ml FITC conjugated Goat (Fab')_2 anti-human IgG (Jackson Immunoresearch #30869, 5 µg/ml in PBSIFCS buffer). After 30-min. incubation on ice, cells were again washed in PBS and suspended in 0.2 ml 0.5% freshly diluted formaldehyde, capped and stored at 4° C. until analysis. The amount of cell bound antibody was determined by flow cytometry (FACScan, Becton-Dickenson, Mountain View, Calif.).
(§2) The binding affinity of the C2B8 homodimer and monomer for the CD20 antigen was compared using a competitive binding assay (FIG. 10). SKW cells were first incubated for 30 minutes on ice with various amounts of 5-fold serially diluted murine (anti-CD20) MAb 2B8, and by 0.1 ml (at 1 µg/ml) of either C2B8 monomer or homodimer. Indirect IF, as described for FIG. 9, evaluated the amount of C2B8 binding. […]
For orientation: Flow cytometry measures light scatter and fluorescence of single cells or particles in a stream.

Assay [2] has as its target T1, CD20 antigen. Briefly: competitive binding on SKW cells against murine 2B8, flow cytometry with FITC anti-human IgG (by the method, 2B8 was serially diluted and homodimer fixed at 1 µg/ml). The method, then: as §1, §2

B1: C2B8, mouse/human chimeric monoclonal antibody specific for CD20 (150 kDa IgG monomer) (antibody, V domains shown)
VH: QVQLQQPGAELVKPGASVKMSCKASGYTFTSYNMHWVKQTPGRGLEWIGAIYPGNGDTSYNQKFKGKATLTADKSSSTAYMQLSSLTSEDSAVYYCARSTYYGGDWYFNVWGAGTTVTVSA
VL: QIVLSQSPAILSASPGEKVTMTCRASSSVSYIHWFQQKPGSSPKRWIYATSNLASGVPVRFSGSGSGTSYSLTISRVEAEDAATYYCQQWTSNPPTFGGGAKLEIKR
notes: also called C2B8 monomer; chimeric C2B8
One may read the IC50 as the concentration at which inhibition is half-maximal. A low value points to inhibition by little substance. As for B1, in the assay with CD20 antigen [1], the IC50 came out at 9.8 µg/mL.

B2: C2B8 (-s-s-) homodimer, disulfide linked IgG/IgG homodimer of C2B8/SH (300 kDa, tetravalent) (antibody, V domains shown)
VH: QVQLQQPGAELVKPGASVKMSCKASGYTFTSYNMHWVKQTPGRGLEWIGAIYPGNGDTSYNQKFKGKATLTADKSSSTAYMQLSSLTSEDSAVYYCARSTYYGGDWYFNVWGAGTTVTVSA
VL: QIVLSQSPAILSASPGEKVTMTCRASSSVSYIHWFQQKPGSSPKRWIYATSNLASGVPVRFSGSGSGTSYSLTISRVEAEDAATYYCQQWTSNPPTFGGGAKLEIKR
modifications: engineered cysteine near the carboxyl terminus of the gamma 1 chain (printed as position 444 and as position 445) joins the two IgG molecules by an intermolecular disulfide bond
notes: also called C2B8 (disulfide linked) homodimer; C2B8 homodimer
For B2, the IC50 with CD20 antigen [2] was determined as 10.4 µg/mL.
